Assay results from patent US20180087116, “METHODS AND BIOSENSORS FOR TUMOR DETECTION” (published 2018).

Assays:
[1] = molecular target: Human serum albumin (HSA) (Homo sapiens, UniProt P02768 P02768:25-609); experiment: selectivity control, 20 nM HSA in PBS; methylene blue release fluorescence; values only in figure; conditions: label: methylene blue (non-covalently adsorbed)
Protocol: (§1) In this example, the fabricated MB/aptamer/nanomotors of EXAMPLE 1 were guided by a magnetic field into solutions (human serum samples) containing various concentration of VEGF165 to react with the fabricated MB/aptamer/nanomotor for about 40 minutes. MB can specifically bind with guanine bases in ss-DNA and the used aptamer herein as a type of ss-DNA riches of guanine bases. The fabricated MB/aptamer/nanomotors were stored at about 4° C. in the refrigerator when they were not in use. Then, the MB/aptamer/nanomotors biosensor was guided to solutions containing the various concentration of VEGF165 tumor marker. Upon exposing MB/aptamer/nanomotor with VEGF165, the adsorbed MB to aptamers released to the solution and let to increase the fluorescence signal of MB. The proposed nanomotor may be used for ‘on-the-fly’ interaction of biological targets such as VEGF165 by functionalizing the gold surface of the nanomotor with various bio-receptors.
In addition, to evaluate the selectivity of the proposed biosensor, some of bio-molecules such as human serum albumin (HSA), bovine serum albumin (BSA), glucose (G), urea (U), dopamine (D) and human immunoglobulin G (HIgG) were used as the potential interferences to evaluate the specificity and the results were shown in FIG. 7.

VEGF165 = VEGF165 (UniProt P15692-4 P15692-4:27-191); experiment: methylene blue release from aptamer/nanomotor, fluorescence increase; linear response 2.5-30 nM VEGF165; human serum samples or PBS, 40 min; conditions: chain copies: 2; label: methylene blue (non-covalently adsorbed)
Sequence of VEGF165 (P15692 other isoform, or with tags, fused parts or gaps): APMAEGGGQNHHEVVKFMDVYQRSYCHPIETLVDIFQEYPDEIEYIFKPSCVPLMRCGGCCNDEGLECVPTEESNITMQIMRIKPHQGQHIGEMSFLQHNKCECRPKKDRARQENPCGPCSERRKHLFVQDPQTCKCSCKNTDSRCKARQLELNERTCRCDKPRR
Protocol: as §1
In FIG. 6B, relative fluorescence changes are calculated by F/F0, where F0 (7.8) and F are the fluorescence intensity without and with VEGF165, respectively, and excitation wavelength was 625 nm.

Sequence of Human serum albumin (HSA) (P02768 25-609, one chain of several): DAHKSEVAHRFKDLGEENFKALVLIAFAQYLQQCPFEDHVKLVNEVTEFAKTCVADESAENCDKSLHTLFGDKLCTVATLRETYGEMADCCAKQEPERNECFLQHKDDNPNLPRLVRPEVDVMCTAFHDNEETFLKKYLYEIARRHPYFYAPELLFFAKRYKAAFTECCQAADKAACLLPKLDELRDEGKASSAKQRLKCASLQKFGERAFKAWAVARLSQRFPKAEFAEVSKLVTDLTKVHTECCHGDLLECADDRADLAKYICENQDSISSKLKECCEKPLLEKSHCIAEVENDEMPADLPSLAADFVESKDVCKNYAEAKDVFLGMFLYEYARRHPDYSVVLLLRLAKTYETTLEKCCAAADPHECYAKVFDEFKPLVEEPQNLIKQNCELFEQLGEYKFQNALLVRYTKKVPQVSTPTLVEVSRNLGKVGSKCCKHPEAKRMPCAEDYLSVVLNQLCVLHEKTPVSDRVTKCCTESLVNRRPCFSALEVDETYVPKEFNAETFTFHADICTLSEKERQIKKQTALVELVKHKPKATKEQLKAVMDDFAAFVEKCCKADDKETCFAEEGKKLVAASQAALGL

TTTCCCGTCTTCCAGACAAGAGTGCAGGG (ssDNA, 5'-SH (thiol), immobilised on Au segment of nanomotor) [anti-VEGF DNA aptamer]: no binding [1]; binds (VEGF165).
